Columns and labels:
Conditions in all cases: both partners purified
[1] = target: T1, 17beta-hydroxysteroid dehydrogenase type 10 (human, UniProt Q99714 1-261); assay: SPR; cypD held on immobilised Ab(cypD); 100 nM 17β-HSD10 flowed for 7 min; 10 mM HEPES, 200 μg/ml BSA, 5 mM Na+, pH 7.4 or 7.8, with K+ (up to 140 mM), Mg2+ or Ca2+ (up to 2.5 mM) alone or K+ and Mg2+ combined; 25 °C; reference channel without cypD
T1 construct: the oligomeric state was not measured; also called 17β-HSD10; 17beta-hydroxysteroide dehydrogenase 10; source: bought: Fitzgerald, USA (human, recombinant)
T1 sequence (looked up): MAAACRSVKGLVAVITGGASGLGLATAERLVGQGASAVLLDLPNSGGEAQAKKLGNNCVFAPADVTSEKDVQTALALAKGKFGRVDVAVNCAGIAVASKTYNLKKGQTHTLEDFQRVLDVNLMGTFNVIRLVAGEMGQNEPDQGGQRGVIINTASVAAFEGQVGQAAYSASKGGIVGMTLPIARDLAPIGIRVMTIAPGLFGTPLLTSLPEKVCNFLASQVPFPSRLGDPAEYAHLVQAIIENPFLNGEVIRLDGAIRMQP

amyloid-β peptide 1–40 = target: T2, amyloid-β peptide 1–40 (human, UniProt P05067 672-711); assay: SPR; cypD held on immobilised Ab(cypD); 17β-HSD10 (100 nM), Aβ1–40 or Aβ1–42 (50-1000 nM, mostly 500 nM) or their mixtures, incubated at 37 °C beforehand (1 hour; or Aβ alone 0-180 min, then 10 min with 17β-HSD10), flowed for 7 or 10 min; HEPES_FINAL (10 mM HEPES, 200 μg/ml BSA, 5 mM Na+, 15 mM K+, 0.1 mM Mg2+, pH 7.4); 25 °C
T2 construct: amyloid-β peptide, residues 1-40 (40 aa), human, cut product of the amyloid precursor protein; numbers count on: the Aβ peptide; The authors take it to stay monomeric under the conditions used; also called Aβ1–40; Aβ_(1–40); source: synthetic peptide; bought: AnaSpec, USA
T2 sequence (P05067 672-711): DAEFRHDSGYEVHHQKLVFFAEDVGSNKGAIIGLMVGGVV

amyloid-β peptide 1–42 = target: T3, amyloid-β peptide 1–42 (human, UniProt P05067 672-713); assay: as above
T3 construct: amyloid-β peptide, residues 1-42 (42 aa), human, cut product of the amyloid precursor protein; numbers count on: the Aβ peptide; Incubated at 37 °C before injection; the authors take it to form oligomers of a size that was not measured; also called Aβ1–42; Aβ_(1–42); source: synthetic peptide; bought: AnaSpec, USA
T3 sequence (P05067 672-713): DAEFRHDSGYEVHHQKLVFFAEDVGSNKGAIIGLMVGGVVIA

binding result [1]: binds
binding result (amyloid-β peptide 1–40): binds
binding result (amyloid-β peptide 1–42): binds
B1: cyclophilin D (enzyme)
chain: not shown
notes: cyclophilin D (cypD), human, recombinant; Held on the chip through an immobilised antibody against cypD; also called cypD; source: bought: Fitzgerald, USA (human, recombinant)
